Measured values published in patent US20190119357A1, “MESSENGER RIBONUCLEIC ACIDS FOR THE PRODUCTION OF INTRACELLULAR BINDING POLYPEPTIDES AND METHODS OF USE THEREOF” (ModernaTX, Inc., priority 2015, published 2019).

Columns and labels:
[1] = tested on: cells; test: Half-life determination by bio-orthogonal non-canonical amino acid tagging (BONCAT); assay type: cell-based; conditions: SQT protein scaffold in cells, post-transfection, one-phase decay fit
Method: The half-life of the SQT protein scaffold in cells was determined by Bio-orthogonal non-canonical amino acid tagging (BONCAT). […] AHA contains a reactive group (a terminal azide), which can be conjugated to a fluorophore via click chemistry. Newly synthesized proteins in the cells were separated by molecular weight (SDS-PAGE) at various time points post-transfection and visualized via in-gel fluorescence. The fluorescent signal was quantified using Li-cor's Image Studio (Version 3.1). One-phase decay nonlinear regression fit was by GraphPad Prism (Version 6).

[2] = Pharmacokinetics of intracellular expression of SQT scaffold polypeptide in mouse livers in vivo; design: species or system mice; conditions: mouse liver
Method: Studies were performed to assess the pharmacokinetics of intracellular expression of the SQT scaffold polypeptide in mouse livers in vivo following multiple dosing. Mice were dosed on day 0 and on day 7 with an LNP carrying an mmRNA construct encoding the SQT scaffold polypeptide. The construct lacked any presenting polypeptides at any of the insertion sites (i.e., the construct was a “dummy” construct of only the scaffold), and was labeled with a FLAG epitope tag. Following dosing with the LNPs, liver protein was recovered and analyzed for expression of the SQT scaffold using the FLAG epitope tag for detection and quantification by quantitative Western blot analysis (LICOR/Western). Protein amounts were normalized to vinculin.

B1: SQT scaffold: Stefin A Quadruple Mutant-Tracy scaffold polypeptide (SEQ ID NO: 70) expressed from a dummy mmRNA construct (protein)
chain: MIPRGLSEAKPATPEIQEIVDKVKPQLEEKTNETYGKLEAVQYKTQVLASTNYYIKVRAGDNKYMHLKVFNGPPGQNADRVLTGYQVDKNKDDELTGF
modifications: Synthetic SteA SQT scaffold amino acid sequence
half-life [1]: 33.31 h | time to peak protein levels ([2]; first dose (day 0) of LNP): approximately 20 hours | time at which protein levels were essentially finished ([2]; post-injection of first dose): approximately 160 hours | time to peak protein levels ([2]; second dose (day 7), post-injection): approximately 20 hours
